US20230357444A1 (published 2023)

Tests used:
[1] = target: T1, human CD3 (native CD3 complex on human T cells) (human, UniProt P07766 23-207); experiment: FACS, HPB-ALL
T1 construct: whole, on cells; also called human CD3+ T cell line HPB-ALL; human CD3 positive PBMC

[2] = target: T2, 1-27 CD3-Fc (N-terminal amino acids 1-27 of the mature human CD3 epsilon chain fused to the hinge and Fc … (human)); experiment: SPR (Biacore), 1-27 CD3-Fc immobilised
T2 construct: The construct was made with a 19 aa immunoglobulin leader; also called 27 aa huCD3E; human CD3 epsilon (aa 1-27)-Fc fusion protein

T1 sequence (P07766 23-207, one chain of several): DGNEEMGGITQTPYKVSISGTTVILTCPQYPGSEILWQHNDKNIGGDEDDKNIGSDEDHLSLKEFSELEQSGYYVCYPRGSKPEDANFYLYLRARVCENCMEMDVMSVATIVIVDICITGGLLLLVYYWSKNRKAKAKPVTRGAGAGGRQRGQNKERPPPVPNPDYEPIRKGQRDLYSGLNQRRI

Binder | binding result [1] | Kd [2] [nM]
MCSP-G4 HLP × E2M HLP (bispecific antibody) QVQLVQSGAEVKRPGASMKVSCKASGYTFTNYYIHWVRQAPGQGLEWMGWINPNSGATNYAQKFQGRVTMTRDTSTSTVYMELSSLRSEDTAVYYCAKSWVSWFASWGQGTLVTVSSGGGGSGGGGSGGGGSELVMTQSPDSLAVSLGERATINCKSSQSVLNSSNNRNYLAWYQQKPGQPPKLLIYWASTRESGVPDRFSGSGSGTDFTLTISGLQAEDVAVYYCQQHYSTPFTFGPGTKVDIKSGGGGSEVQLLESGGGLVQPGGSLKLSCAASGFTFNGYAMNWVRQAPGKGLEWVARIRSKYNNYATYYADSVKERFTISRDDSKNTAYLQMNNLKTEDTAVYYCVRHRNFGNSYLSWFAYWGQGTLVTVSSGGGGSGGGGSGGGGSELVVTQEPSLTVSPGGTVTLTCRSSTGAVTSGYYPNWVQQKPGQAPRGLIGATDMRPSGTPARFSGSLLGGKAALTLSGVQPEDEAEYYCALWYSNRWVFGGGTKLTVLHHHHHH | binds | –
EGFR-21-63 LH × A2J HLP (bispecific antibody, also called EGFR LH × A2J HLP) DIVLTQSPASLPVSLGQRATISCRASQSVSSSTYSYIHWYQQKPGQPPKLLITYASNLESGVPARFSGSGSGTDFTLDIHPVEEDDSSTYYCQHSWEIPFTFGSGTKLEIKGGGGSGGGGSGGGGSQVQLQQSGPDLVKPGASVKMSCKASGHTFTDCVIIWVKQRAGQGLEWIGQIYPGTGRSYYNEIFKGKATLTADKSSNTVHIQLSSLTSEDSAVYFCALSTLIHGTWFSYWGQGTLVTVSSGGGGSEVQLLESGGGLVQPGGSLKLSCAASGFTFNVYAMNWVRQAPGKGLEWVARIRSKYNNYATYYADSVKKRFTISRDDSKNTAYLQMNNLKTEDTAVYYCVRHGNFGNSYLSWWAYWGQGTLVTVSSGGGGSGGGGSGGGGSELVVTQEPSLTVSPGGTVTLTCRSSTGAVTSGYYPNWVQQKPGQAPRGLIGATDMRPSGTPARFSGSLLGGKAALTLSGVQPEDEAEYYCALWYSNRWVFGGGTKLTVLHHHHHH | – | 249
EGFR-21-63 LH × E2M HLP (bispecific antibody, also called EGFR LH × E2M HLP) DIVLTQSPASLPVSLGQRATISCRASQSVSSSTYSYIHWYQQKPGQPPKLLITYASNLESGVPARFSGSGSGTDFTLDIHPVEEDDSSTYYCQHSWEIPFTFGSGTKLEIKGGGGSGGGGSGGGGSQVQLQQSGPDLVKPGASVKMSCKASGHTFTDCVIIWVKQRAGQGLEWIGQIYPGTGRSYYNEIFKGKATLTADKSSNTVHIQLSSLTSEDSAVYFCALSTLIHGTWFSYWGQGTLVTVSSGGGGSEVQLLESGGGLVQPGGSLKLSCAASGFTFNGYAMNWVRQAPGKGLEWVARIRSKYNNYATYYADSVKERFTISRDDSKNTAYLQMNNLKTEDTAVYYCVRHRNFGNSYLSWFAYWGQGTLVTVSSGGGGSGGGGSGGGGSELVVTQEPSLTVSPGGTVTLTCRSSTGAVTSGYYPNWVQQKPGQAPRGLIGATDMRPSGTPARFSGSLLGGKAALTLSGVQPEDEAEYYCALWYSNRWVFGGGTKLTVLHHHHHH | – | 2460
